The target in experiment [1] is MBP-LRRK2-Roc-COR (wild type) (human) (UniProt Q5S007). In words: MST; NT-647-NHS labelled MBP-LRRK2-Roc-COR at 100 nM; unlabelled GST, GST-CRIB-PAK5 or GST-CRIB-PAK6 titrated; guanine nucleotides at 0.5 mM; Monolith NT.115, IR laser power 80%; analysed by PALMIST.
The target of the next experiment is PAK6 (Homo sapiens) (UniProt Q9NQU5). The following applies: cited from earlier work.
In experiment [2] the target is 3xFlag tagged PAK6, full-length, purified from HEK293 cells (human) (UniProt Q9NQU5). In words: MST; NT-647-NHS labelled PAK6 full-length at 100 nM; unlabelled MBP-LRRK2-Roc-COR titrated (R1441C 3.4 nM to 110 µM, Y1699C 3.6 nM to 118 µM); guanine nucleotides at 0.5 mM; Monolith NT.115, IR laser power 80%; analysed by PALMIST.
Chain of 3xFlag tagged PAK6, full-length, purified from HEK293 cells (human) (Q9NQU5 whole entry): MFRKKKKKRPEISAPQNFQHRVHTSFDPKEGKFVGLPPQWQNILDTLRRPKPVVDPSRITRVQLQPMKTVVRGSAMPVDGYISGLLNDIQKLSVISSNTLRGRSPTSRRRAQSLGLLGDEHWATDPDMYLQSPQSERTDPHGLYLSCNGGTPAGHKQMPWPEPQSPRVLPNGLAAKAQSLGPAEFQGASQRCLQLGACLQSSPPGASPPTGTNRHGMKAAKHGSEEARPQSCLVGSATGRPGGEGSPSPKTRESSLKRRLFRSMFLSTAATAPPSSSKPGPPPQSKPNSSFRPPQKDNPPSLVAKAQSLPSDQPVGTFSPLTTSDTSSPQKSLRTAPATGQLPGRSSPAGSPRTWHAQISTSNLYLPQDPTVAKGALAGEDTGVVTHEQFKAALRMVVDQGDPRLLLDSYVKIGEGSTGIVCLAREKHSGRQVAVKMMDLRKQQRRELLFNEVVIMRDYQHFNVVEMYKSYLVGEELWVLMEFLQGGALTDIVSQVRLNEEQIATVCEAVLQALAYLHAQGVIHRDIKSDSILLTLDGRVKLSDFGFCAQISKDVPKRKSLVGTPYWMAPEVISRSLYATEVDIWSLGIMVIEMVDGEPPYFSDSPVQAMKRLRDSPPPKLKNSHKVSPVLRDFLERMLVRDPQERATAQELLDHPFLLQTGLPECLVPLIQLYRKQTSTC

Chain of MBP-LRRK2-Roc-COR (wild type) (human) (Q5S007 whole entry): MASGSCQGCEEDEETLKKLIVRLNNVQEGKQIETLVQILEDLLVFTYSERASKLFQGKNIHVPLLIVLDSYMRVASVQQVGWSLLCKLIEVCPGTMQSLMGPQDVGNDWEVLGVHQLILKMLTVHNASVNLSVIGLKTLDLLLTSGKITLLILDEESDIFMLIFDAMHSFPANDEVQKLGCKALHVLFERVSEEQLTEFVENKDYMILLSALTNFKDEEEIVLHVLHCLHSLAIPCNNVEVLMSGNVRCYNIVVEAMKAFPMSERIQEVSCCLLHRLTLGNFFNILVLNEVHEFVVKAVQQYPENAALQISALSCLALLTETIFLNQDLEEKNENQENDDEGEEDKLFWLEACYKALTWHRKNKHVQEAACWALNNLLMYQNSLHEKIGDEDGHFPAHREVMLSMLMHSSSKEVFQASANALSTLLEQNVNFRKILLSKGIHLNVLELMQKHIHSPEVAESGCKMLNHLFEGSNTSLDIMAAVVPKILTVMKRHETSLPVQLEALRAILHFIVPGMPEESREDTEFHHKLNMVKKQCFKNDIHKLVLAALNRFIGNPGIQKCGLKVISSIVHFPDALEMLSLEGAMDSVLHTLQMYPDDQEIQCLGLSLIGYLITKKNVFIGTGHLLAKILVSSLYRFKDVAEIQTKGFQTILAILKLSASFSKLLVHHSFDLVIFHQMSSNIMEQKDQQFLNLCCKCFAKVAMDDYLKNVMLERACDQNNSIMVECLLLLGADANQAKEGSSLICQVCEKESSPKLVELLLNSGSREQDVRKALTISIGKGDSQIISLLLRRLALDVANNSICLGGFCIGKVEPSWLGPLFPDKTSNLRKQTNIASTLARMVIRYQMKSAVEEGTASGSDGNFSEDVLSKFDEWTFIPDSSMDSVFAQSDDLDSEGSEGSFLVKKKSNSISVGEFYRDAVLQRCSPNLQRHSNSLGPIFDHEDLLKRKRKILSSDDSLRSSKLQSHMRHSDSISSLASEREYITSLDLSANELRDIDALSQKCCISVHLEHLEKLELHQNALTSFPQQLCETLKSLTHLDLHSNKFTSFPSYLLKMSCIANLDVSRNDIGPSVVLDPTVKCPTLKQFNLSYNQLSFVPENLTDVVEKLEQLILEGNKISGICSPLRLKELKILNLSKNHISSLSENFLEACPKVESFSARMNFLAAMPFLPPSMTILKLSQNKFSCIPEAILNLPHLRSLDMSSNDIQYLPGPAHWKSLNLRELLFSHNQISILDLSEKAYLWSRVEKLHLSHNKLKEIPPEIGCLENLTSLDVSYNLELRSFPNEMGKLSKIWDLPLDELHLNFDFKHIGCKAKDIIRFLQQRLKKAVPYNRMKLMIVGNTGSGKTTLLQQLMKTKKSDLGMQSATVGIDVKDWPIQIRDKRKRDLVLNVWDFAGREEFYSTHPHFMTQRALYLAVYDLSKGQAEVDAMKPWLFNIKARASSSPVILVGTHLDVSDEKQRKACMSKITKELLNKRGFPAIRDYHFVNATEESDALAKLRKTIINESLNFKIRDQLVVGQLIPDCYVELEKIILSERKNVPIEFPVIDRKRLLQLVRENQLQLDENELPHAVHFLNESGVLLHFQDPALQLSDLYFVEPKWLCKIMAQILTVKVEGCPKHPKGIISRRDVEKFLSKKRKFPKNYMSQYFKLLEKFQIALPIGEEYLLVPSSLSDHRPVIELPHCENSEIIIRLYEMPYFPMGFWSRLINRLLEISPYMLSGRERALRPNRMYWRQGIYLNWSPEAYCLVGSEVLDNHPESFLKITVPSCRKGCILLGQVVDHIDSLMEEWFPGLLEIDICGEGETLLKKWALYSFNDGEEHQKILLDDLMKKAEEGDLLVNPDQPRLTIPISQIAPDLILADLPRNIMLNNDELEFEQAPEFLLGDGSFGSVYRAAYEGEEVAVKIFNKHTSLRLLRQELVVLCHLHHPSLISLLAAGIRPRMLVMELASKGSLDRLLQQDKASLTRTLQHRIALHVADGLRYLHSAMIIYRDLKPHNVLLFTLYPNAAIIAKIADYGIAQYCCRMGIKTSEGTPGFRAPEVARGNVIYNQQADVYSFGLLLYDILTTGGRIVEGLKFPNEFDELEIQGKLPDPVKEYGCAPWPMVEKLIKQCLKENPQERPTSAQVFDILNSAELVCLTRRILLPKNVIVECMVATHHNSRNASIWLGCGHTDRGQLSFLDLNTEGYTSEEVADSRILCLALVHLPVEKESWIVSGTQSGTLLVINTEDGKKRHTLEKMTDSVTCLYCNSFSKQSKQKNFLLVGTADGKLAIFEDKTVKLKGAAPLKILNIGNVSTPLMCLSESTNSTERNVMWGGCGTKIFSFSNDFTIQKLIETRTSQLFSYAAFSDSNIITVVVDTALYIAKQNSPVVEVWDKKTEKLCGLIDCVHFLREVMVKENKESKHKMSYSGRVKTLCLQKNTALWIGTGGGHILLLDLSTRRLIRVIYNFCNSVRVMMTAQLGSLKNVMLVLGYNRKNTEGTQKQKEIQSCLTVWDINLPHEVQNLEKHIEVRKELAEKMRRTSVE
Chain of GST-CRIB(PAK5) (Q9P286 10-44): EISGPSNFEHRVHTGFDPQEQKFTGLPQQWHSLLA
Chain of LRRK2 Roc-COR (Q5S007 1328-1840): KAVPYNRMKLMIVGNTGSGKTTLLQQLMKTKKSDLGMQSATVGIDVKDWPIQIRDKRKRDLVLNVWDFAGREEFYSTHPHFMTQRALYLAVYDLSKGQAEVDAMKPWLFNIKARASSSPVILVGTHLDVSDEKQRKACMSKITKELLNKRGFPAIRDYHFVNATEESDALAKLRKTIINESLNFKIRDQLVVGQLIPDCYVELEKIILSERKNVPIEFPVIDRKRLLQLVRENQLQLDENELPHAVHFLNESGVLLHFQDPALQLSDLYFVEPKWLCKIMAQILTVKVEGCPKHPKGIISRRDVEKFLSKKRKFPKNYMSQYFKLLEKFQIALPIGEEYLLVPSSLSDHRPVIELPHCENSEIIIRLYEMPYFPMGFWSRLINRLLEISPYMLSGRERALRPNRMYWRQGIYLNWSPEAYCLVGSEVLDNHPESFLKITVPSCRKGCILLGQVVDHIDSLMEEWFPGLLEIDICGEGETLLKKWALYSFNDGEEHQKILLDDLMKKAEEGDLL
Chain of GST-CRIB(PAK6) (Q9NQU5 11-45): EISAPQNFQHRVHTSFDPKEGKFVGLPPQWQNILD
Chain of PAK6 (Homo sapiens) (Q9NQU5 whole entry): as the sequence (Q9NQU5 whole entry) above

What is called Kd is the concentration at which binding is half-saturated. On to “GST-CRIB(PAK6) (from UniProt Q9NQU5 11-45) (domain or fragment)”, for which the dissociation constant Kd in experiment [1] was 12 µM. LRRK2 Roc-COR (from UniProt Q5S007): the equilibrium dissociation constant (Kd) with PAK6 (Homo sapiens) was 10 µM. In experiment [2], “MBP-LRRK2-Roc-COR R1441C (from UniProt Q5S007 1-2527) (domain or fragment)” came in with a dissociation constant (Kd) of 51.8 µM. The same measure, in the same setting: the result for “MBP-LRRK2-Roc-COR Y1699C (from UniProt Q5S007 1-2527) (domain or fragment)” reads 38.2 µM. Substance “GST-CRIB(PAK5) (from UniProt Q9P286 10-44) (domain or fragment)” came in with an equilibrium dissociation constant (Kd) in experiment [1] of 112 µM.

(Values after publication PMC11487180.)
